# According to patent US20150344570A1 (published 2015):
# T1: FcγRIIa R extracellular domain with C-terminal His tag (human, UniProt P12318 34-217)
# T1 construct: extracellular domain; also called FcgRIIa R; 2aR; not shown: His tag at the C terminus
# T1 sequence (looked up): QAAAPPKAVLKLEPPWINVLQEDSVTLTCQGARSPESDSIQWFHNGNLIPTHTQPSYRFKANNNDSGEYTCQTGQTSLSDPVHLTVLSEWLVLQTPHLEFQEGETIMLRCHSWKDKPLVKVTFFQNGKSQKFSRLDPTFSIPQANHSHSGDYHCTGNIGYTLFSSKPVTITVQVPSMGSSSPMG
# B1: GpH7-A5/GpH7-B3 variant I332_06M/GpL16-k0 (antibody, human IgG1, kappa)
# heavy 1: not shown
# heavy 2: not shown
# light: DIVMTQSPLSLPVTPGEPASISCQASESLVHSNRNTYLHWYLQKPGQSPQLLIYKVSNRFSGVPDRFSGSGSGTDFTLKISRVEAEDVGVYYCSQNTHVPPTFGQGTKVEIERTVAAPSVFIFPPSDEQLKSGTASVVCLLNNFYPREAKVQWKVDNALQSGNSQESVTEQDSKDSTYSLSSTLTLSKADYEKHKVYACEVTHQGLSSPVTKSFNRGEC
# notes: heterodimerized: alteration in one H chain only; also called He Ab I332_06M
# B2: GpH7-A5/GpH7-B3 variant K326_15Y/GpL16-k0 (antibody, human IgG1, kappa)
# heavy 1: not shown
# heavy 2: not shown
# light: B1 light
# notes: heterodimerized: alteration in one H chain only; also called He Ab K326_15Y
# B3: GpH7-A5/GpH7-B3 variant K334_13S/GpL16-k0 (antibody, human IgG1, kappa)
# heavy 1: not shown
# heavy 2: not shown
# light: B1 light
# notes: heterodimerized: alteration in one H chain only; also called He Ab K334_13S
# B4: GpH7-A5/GpH7-B3 variant K334_19Q/GpL16-k0 (antibody, human IgG1, kappa)
# heavy 1: not shown
# heavy 2: not shown
# light: B1 light
# notes: heterodimerized: alteration in one H chain only; also called He Ab K334_19Q
# B5: GpH7-A5/GpH7-B3 variant A330_01G/GpL16-k0 (antibody, human IgG1, kappa)
# heavy 1: not shown
# heavy 2: not shown
# light: B1 light
# notes: heterodimerized: alteration in one H chain only; also called He Ab A330_01G
# B6: GpH7-A5/GpH7-B3 variant I336_08L/GpL16-k0 (antibody, human IgG1, kappa)
# heavy 1: not shown
# heavy 2: not shown
# light: B1 light
# notes: heterodimerized: alteration in one H chain only; also called He Ab I336_08L
# B7: GpH7-B3 variant S267_03V/GpL16-k0 (antibody, human IgG1, kappa)
# heavy: not shown
# light: B1 light
# notes: homodimerized: alteration in both H chains; also called Ho Ab S267_03V
# B8: GpH7-B3 variant S337_16H/GpL16-k0 (antibody, human IgG1, kappa)
# heavy: not shown
# light: B1 light
# notes: homodimerized: alteration in both H chains; also called Ho Ab S337_16H
# B9: GpH7-B3 variant S337_19Q/GpL16-k0 (antibody, human IgG1, kappa)
# heavy: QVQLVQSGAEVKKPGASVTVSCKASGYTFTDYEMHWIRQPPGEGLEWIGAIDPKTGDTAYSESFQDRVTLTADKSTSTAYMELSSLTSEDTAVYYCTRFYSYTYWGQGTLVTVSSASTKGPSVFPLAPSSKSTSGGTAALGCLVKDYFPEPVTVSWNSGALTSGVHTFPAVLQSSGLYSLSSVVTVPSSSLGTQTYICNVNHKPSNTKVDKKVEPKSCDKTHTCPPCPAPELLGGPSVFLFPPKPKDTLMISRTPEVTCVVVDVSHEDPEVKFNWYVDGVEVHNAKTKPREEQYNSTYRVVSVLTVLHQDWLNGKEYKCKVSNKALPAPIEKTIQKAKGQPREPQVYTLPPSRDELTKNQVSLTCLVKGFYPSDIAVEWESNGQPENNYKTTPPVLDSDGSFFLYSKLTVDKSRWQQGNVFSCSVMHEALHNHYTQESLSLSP
# light: B1 light
# notes: homodimerized: alteration in both H chains; also called Ho Ab S337_19Q
# B10: GpH7-B3 variant T335_05P/GpL16-k0 (antibody, human IgG1, kappa)
# heavy: not shown
# light: B1 light
# notes: homodimerized: alteration in both H chains; also called Ho Ab T335_05P
# B11: GpH7-B3 variant S267_19Q/GpL16-k0 (antibody, human IgG1, kappa)
# heavy: not shown
# light: B1 light
# notes: homodimerized: alteration in both H chains; also called Ho Ab S267_19Q
# B12: GpH7-B3 variant S324_06M/GpL16-k0 (antibody, human IgG1, kappa)
# heavy: not shown
# light: B1 light
# notes: homodimerized: alteration in both H chains; also called Ho Ab S324_06M
# B13: GpH7-B3 variant S337_09D/GpL16-k0 (antibody, human IgG1, kappa)
# heavy: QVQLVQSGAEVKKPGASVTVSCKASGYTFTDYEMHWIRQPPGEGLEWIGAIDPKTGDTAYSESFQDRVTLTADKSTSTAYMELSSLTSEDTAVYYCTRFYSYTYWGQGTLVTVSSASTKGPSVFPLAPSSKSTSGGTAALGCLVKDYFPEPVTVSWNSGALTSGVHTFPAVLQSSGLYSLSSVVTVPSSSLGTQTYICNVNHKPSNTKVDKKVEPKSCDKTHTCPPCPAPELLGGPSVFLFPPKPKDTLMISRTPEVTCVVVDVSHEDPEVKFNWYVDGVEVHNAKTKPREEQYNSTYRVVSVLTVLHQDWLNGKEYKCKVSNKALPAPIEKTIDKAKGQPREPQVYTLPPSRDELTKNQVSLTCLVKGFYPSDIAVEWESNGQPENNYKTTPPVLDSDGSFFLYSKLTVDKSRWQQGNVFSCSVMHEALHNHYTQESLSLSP
# light: B1 light
# notes: homodimerized: alteration in both H chains; also called Ho Ab S337_09D
# B14: GpH7-B3 variant S337_06M/GpL16-k0 (antibody, human IgG1, kappa)
# heavy: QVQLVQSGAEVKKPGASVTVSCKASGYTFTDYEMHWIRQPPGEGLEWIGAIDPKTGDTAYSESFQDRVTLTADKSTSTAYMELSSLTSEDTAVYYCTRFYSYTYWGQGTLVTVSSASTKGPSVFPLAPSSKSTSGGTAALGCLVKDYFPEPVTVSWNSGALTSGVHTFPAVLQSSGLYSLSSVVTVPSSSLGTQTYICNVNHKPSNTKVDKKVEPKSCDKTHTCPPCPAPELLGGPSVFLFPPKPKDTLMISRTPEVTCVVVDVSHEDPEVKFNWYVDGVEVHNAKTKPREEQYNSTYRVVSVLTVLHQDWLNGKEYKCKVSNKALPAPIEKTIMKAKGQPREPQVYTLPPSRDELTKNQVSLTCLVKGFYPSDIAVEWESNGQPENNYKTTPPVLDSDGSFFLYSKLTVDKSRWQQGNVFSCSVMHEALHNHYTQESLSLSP
# light: B1 light
# notes: homodimerized: alteration in both H chains; also called Ho Ab S337_06M
# B15: GpH7-B3 variant S337_07I/GpL16-k0 (antibody, human IgG1, kappa)
# heavy: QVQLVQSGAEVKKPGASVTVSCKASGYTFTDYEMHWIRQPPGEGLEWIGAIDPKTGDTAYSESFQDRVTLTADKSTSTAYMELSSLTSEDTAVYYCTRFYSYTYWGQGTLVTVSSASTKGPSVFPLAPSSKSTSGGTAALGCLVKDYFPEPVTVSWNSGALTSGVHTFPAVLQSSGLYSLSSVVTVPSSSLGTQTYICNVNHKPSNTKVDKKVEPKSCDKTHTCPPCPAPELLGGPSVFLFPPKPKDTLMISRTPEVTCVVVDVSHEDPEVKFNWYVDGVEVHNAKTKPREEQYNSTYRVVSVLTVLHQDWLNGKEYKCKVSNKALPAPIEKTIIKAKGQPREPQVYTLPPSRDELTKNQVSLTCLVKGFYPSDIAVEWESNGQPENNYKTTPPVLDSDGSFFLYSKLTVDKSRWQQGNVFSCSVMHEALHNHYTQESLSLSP
# light: B1 light
# notes: homodimerized: alteration in both H chains; also called Ho Ab S337_07I
# B16: GpH7-B3 variant S267_09D/GpL16-k0 (antibody, human IgG1, kappa)
# heavy: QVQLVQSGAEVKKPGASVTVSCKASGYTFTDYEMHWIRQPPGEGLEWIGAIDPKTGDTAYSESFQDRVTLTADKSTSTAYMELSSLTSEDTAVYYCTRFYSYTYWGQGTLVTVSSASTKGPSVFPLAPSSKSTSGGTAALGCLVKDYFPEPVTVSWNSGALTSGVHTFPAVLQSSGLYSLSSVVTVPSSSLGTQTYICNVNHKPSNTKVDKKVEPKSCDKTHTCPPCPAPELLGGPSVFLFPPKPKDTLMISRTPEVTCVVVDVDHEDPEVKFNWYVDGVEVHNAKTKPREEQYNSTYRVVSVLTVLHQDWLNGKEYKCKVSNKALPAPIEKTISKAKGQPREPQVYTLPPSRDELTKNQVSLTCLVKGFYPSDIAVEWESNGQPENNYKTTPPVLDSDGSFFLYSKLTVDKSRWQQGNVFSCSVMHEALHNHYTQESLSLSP
# light: B1 light
# notes: homodimerized: alteration in both H chains; also called Ho Ab S267_09D
# B17: GpH7-B3 variant T335_13S/GpL16-k0 (antibody, human IgG1, kappa)
# heavy: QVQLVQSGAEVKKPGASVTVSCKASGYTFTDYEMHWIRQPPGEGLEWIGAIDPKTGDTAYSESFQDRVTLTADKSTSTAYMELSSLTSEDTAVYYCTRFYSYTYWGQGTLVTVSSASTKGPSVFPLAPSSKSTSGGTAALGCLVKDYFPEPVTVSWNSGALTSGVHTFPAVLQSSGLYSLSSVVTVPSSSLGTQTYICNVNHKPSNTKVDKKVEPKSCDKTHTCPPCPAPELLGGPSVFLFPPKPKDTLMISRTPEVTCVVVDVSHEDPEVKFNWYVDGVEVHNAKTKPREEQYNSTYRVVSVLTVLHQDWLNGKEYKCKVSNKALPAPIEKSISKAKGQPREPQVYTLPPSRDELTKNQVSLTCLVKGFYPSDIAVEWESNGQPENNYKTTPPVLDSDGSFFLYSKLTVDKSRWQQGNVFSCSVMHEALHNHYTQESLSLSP
# light: B1 light
# notes: homodimerized: alteration in both H chains; also called Ho Ab T335_13S
# B18: GpH7-B3 variant T335_07I/GpL16-k0 (antibody, human IgG1, kappa)
# heavy: not shown
# light: B1 light
# notes: homodimerized: alteration in both H chains; also called Ho Ab T335_07I
# B19: GpH7-B3 variant T335_02A/GpL16-k0 (antibody, human IgG1, kappa)
# heavy: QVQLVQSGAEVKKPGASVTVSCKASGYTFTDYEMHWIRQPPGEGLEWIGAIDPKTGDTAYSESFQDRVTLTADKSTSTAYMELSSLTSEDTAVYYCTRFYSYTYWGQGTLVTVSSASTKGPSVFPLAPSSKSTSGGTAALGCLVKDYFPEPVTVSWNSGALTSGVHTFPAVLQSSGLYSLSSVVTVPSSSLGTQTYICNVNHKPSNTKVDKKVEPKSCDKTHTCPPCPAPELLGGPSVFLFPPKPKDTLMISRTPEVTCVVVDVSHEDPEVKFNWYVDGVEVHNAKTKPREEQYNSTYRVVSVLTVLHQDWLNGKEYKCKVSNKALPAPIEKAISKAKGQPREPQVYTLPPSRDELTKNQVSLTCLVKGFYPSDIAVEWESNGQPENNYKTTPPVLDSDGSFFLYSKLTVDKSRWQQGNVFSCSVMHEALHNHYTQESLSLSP
# light: B1 light
# notes: homodimerized: alteration in both H chains; also called Ho Ab T335_02A
# B20: GpH7-B3 variant S337_03V/GpL16-k0 (antibody, human IgG1, kappa)
# heavy: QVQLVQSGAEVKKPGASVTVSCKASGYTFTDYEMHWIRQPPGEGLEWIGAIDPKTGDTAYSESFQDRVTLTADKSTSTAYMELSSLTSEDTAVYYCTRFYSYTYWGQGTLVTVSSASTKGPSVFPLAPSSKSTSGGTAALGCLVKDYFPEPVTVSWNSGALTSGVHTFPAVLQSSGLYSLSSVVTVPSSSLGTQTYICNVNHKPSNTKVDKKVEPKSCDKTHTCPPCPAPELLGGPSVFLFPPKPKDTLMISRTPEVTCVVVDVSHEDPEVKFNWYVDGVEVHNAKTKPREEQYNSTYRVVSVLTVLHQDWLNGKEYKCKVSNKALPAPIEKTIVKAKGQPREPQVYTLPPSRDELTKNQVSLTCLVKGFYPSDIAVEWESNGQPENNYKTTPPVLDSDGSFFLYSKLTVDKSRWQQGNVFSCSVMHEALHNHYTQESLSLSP
# light: B1 light
# notes: homodimerized: alteration in both H chains; also called Ho Ab S337_03V
# B21: GpH7-B3 variant S337_18N/GpL16-k0 (antibody, human IgG1, kappa)
# heavy: not shown
# light: B1 light
# notes: homodimerized: alteration in both H chains; also called Ho Ab S337_18N
# B22: GpH7-B3 variant S337_20W/GpL16-k0 (antibody, human IgG1, kappa)
# heavy: not shown
# light: B1 light
# notes: homodimerized: alteration in both H chains; also called Ho Ab S337_20W
# B23: GpH7-B3 variant S337_10E/GpL16-k0 (antibody, human IgG1, kappa)
# heavy: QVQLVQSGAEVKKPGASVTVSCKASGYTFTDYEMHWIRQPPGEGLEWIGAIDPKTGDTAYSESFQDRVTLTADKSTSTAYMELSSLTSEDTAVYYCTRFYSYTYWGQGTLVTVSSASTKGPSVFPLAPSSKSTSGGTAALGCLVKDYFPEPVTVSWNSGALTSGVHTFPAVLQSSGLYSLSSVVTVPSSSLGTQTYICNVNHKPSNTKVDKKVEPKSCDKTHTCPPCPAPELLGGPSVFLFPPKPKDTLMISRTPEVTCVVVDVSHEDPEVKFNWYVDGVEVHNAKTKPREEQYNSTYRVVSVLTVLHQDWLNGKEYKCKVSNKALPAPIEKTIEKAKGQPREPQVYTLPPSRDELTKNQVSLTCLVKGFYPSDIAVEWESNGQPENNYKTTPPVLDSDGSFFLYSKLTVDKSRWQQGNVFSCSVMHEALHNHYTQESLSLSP
# light: B1 light
# notes: homodimerized: alteration in both H chains; also called Ho Ab S337_10E
# B24: GpH7-B3 variant T335_10E/GpL16-k0 (antibody, human IgG1, kappa)
# heavy: not shown
# light: B1 light
# notes: homodimerized: alteration in both H chains; also called Ho Ab T335_10E
# B25: GpH7-B3 variant S267_06M/GpL16-k0 (antibody, human IgG1, kappa)
# heavy: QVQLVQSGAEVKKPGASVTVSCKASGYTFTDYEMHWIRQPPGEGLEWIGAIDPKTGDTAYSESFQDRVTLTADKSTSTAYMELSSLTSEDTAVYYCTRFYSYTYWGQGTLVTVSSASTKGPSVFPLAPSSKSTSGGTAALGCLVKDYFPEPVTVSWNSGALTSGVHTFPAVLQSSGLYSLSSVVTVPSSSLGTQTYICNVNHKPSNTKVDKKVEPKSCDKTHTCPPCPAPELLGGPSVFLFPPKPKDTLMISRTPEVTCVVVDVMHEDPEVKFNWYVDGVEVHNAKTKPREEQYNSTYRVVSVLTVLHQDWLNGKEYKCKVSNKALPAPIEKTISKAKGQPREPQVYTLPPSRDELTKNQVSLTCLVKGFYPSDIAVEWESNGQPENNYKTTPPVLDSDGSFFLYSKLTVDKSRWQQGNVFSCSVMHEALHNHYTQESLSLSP
# light: B1 light
# notes: homodimerized: alteration in both H chains; also called Ho Ab S267_06M
# B26: GpH7-B3 variant S337_15Y/GpL16-k0 (antibody, human IgG1, kappa)
# heavy: not shown
# light: B1 light
# notes: homodimerized: alteration in both H chains; also called Ho Ab S337_15Y
# B27: GpH7-B3 variant S298_08L/GpL16-k0 (antibody, human IgG1, kappa)
# heavy: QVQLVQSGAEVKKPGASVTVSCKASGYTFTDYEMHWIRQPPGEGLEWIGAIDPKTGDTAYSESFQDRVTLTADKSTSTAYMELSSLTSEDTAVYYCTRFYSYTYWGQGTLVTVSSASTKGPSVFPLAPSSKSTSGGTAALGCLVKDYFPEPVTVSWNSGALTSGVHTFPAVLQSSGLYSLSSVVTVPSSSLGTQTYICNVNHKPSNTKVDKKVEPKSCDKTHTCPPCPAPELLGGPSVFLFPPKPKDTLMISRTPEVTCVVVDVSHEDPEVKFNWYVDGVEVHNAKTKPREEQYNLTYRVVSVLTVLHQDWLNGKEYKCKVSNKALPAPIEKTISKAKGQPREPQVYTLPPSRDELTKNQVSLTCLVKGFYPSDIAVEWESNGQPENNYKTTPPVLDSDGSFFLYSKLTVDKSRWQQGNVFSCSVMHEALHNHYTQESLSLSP
# light: B1 light
# notes: homodimerized: alteration in both H chains; also called Ho Ab S298_08L
# Molecular target: T1, FcγRIIa R extracellular domain with …
# Experiment: SPR (Biacore), relative FcγRIIa R binding, GpH7-A5/GpH7-B3/GpL16-k0 = 100
row,He/Con_2aR,Binder
1,109 % of control,B1
2,136 % of control,B2
3,109 % of control,B3
4,109 % of control,B4
5,109 % of control,B5
6,110 % of control,B6

# Molecular target: T1, FcγRIIa R extracellular domain with …
# Experiment: SPR (Biacore), relative FcγRIIa R binding, GpH7-B3/GpL16-k0 = 100
# Procedure: Analysis of interaction between objective antibody and the FcγR was carried out using Biacore T100 (GE Healthcare). HBS-EP+ (GE Healthcare) was used as the running buffer, and the measurement temperature was set to 25° C. Chips produced by immobilizing the antigen peptide by the amine coupling method to a Series S Sencor Chip CM5 (GE Healthcare), or alternatively, chips produced by allowing preliminarily biotinylated antigen peptides to interact with and immobilize onto a Series S Sensor Chip SA (certified) (GE Healthcare) were used. Antibodies of interest were captured onto an antigen peptide-immobilized chip, and allowed to interact to each FcγR diluted with running buffer. To regenerate and repeatedly use the chip, the antibodies captured on the chip were washed off by reacting 10 mM glycine-HCl, pH 1.5.
row,Ho/Con_2aR,Binder
1,115 % of control,B7
2,107 % of control,B8
3,102 % of control,B9
4,104 % of control,B10
5,110 % of control,B11
6,118 % of control,B12
7,114 % of control,B13
8,101 % of control,B14
9,103 % of control,B15
10,167 % of control,B16
11,102 % of control,B17
12,107 % of control,B18
13,102 % of control,B19
14,102 % of control,B20
15,103 % of control,B21
16,105 % of control,B22
17,110 % of control,B23
18,109 % of control,B24
19,102 % of control,B25
20,100 % of control,B26
21,101 % of control,B27
